B1: R3.2 (tprA-BS) (dsDNA)
DNA 1: AGTATTTAAAGCTCAATTAGCACCCCGTACTGT
DNA 2: ACAGTACGGGGTGCTAATTGAGCTTTAAATACT
B2: R3.3 (dsDNA)
DNA 1: TACTGTCTGACCTGAGTTCAACAAAGCATTCTA
DNA 2: TAGAATGCTTTGTTGAACTCAGGTCAGACAGTA
B3: R3.4 (dsDNA)
DNA 1: ATTCTAAAACGATTAGAACTTCTATTTTATCCA
DNA 2: TGGATAAAATAGAAGTTCTAATCGTTTTAGAAT
B4: R3.1 (dsDNA)
DNA 1: AATTTAGCCCAATAGTATTTAAAGCTCAATTAGCAC
DNA 2: GTGCTAATTGAGCTTTAAATACTATTGGGCTAAATT
B5: R2 (dsDNA)
DNA 1: AGTACTGAATCCAGCCACTACCAAGGGGTTAACTGATGCCAGGCTTGGAAATACGGAGCCTTTCCAAGCGACTAAAACAAAGAAGAAAGCTCCCCAGAAA
DNA 2: TTTCTGGGGAGCTTTCTTCTTTGTTTTAGTCGCTTGGAAAGGCTCCGTATTTCCAAGCCTGGCATCAGTTAACCCCTTGGTAGTGGCTGGATTCAGTACT
B6: R1 (dsDNA)
DNA 1: TTGCAGGGGTTTCGGAGAAAAAACCTGTGACCCAGAACTCTTTTTCCGTATATTTTAAAGCGAAGTCTTCAACAAGCCTTACCGAGAAAGGAAACAGGAT
DNA 2: ATCCTGTTTCCTTTCTCGGTAAGGCTTGTTGAAGACTTCGCTTTAAAATATACGGAAAAAGAGTTCTGGGTCACAGGTTTTTTCTCCGAAACCCCTGCAA
B7: R3 (dsDNA)
DNA 1: AATTTAGCCCAATAGTATTTAAAGCTCAATTAGCACCCCGTACTGTCTGACCTGAGTTCAACAAAGCATTCTAAAACGATTAGAACTTCTATTTTATCCA
DNA 2: TGGATAAAATAGAAGTTCTAATCGTTTTAGAATGCTTTGTTGAACTCAGGTCAGACAGTACGGGGTGCTAATTGAGCTTTAAATACTATTGGGCTAAATT
B8: R5 (dsDNA)
DNA 1: CCTAGTCATCGAGAAATCCCCTCCCCTGTTGCCGAGTATTTCCTGCTGATGCGTGGCGGATGGCCTGCCACTGTGTGCCCCATCATCAAAGGGGGCCTCA
DNA 2: TGAGGCCCCCTTTGATGATGGGGCACACAGTGGCAGGCCATCCGCCACGCATCAGCAGGAAATACTCGGCAACAGGGGAGGGGATTTCTCGATGACTAGG
B9: R4 (dsDNA)
DNA 1: TTTCTAACAACGATTCCCACCTGGCTCGCTTTAGGCGTAACATGAAAAACCTTCATCGCTCCTAATCCGTTTCCCTTACGCCTGCCTCGCTCACCCTCTG
DNA 2: CAGAGGGTGAGCGAGGCAGGCGTAAGGGAAACGGATTAGGAGCGATGAAGGTTTTTCATGTTACGCCTAAAGCGAGCCAGGTGGGAATCGTTGTTAGAAA

The target of the first data set is T1, TprA (Pseudomonas aeruginosa PA14, UniProt A0A0H2ZFZ8 1-84). As to the kind of experiment: EMSA. To be noted: protein: recombinant; tags: His-tag removed by TEV; chain copies: 2; label: 5'-Cy5 on strand 1; blunt.
Consider B1, for which the binding result is “binds”.
On to B2, for which the binding result was “no binding”.
Still for that read-out and setting: the result for B3 reads “no binding”.
Same read-out and setting: the result for B4 reads “no binding”.

The next data set deals with T1, TprA. As to the kind of experiment: EMSA; 1 uM TprA. To be noted: protein: recombinant; tags: His-tag removed by TEV; chain copies: 2; label: 5'-Cy5 on strand 1; blunt. On the technique in general: In EMSA bound probe runs differently from free probe, usually more slowly.
On to B5, for which the binding result is listed as “no binding”.
Same read-out and setting: the result for B6 reads “no binding”.
Same read-out and setting: the result for B7 reads “binds”; that for B8, “no binding”.
Same read-out and setting: the result for B9 reads “no binding”.

Values taken from article PMC8565334, “The horizontal transfer of Pseudomonas aeruginosa PA14 ICE PAPI-1 is controlled by a transcriptional triad between TprA, NdpA2 and MvaT”.
